Earlier results, collected in article PMC12990809.

Legend:
Assay in all cases: pulldown
Settings in all cases: 20 nM protein, 1.5 uM RNA pool; 20 mM HEPES pH 7.8, 70 mM KCl, 10 mM NaCl, 10% glycerol, 2 mM DTT, 0.1 ug/uL BSA; 30 min, 4 C (protocol of this paper; not …); cited from earlier work
[1] = target: T1, TVAG_129710 (Trichomonas vaginalis) (UniProt A2DI67)
T1 sequence: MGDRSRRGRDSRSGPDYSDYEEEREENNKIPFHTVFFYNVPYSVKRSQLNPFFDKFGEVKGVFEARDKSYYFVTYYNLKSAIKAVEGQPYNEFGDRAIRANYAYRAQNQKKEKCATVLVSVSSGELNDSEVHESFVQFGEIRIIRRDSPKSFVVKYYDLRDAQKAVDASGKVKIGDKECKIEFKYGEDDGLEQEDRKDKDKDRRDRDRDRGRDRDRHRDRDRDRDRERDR

[2] = target: T2, TVAG_267990 (Trichomonas vaginalis) (UniProt A2DLE8)
T2 sequence: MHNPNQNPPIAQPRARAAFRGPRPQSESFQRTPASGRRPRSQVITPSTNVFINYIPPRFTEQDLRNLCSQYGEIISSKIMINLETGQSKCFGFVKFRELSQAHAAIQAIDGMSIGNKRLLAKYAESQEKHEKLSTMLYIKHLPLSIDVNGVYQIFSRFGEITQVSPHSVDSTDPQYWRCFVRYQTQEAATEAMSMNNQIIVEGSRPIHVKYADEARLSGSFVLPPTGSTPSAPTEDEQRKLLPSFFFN

[3] = target: T3, Tb09.211.0930 (Trypanosoma brucei) (UniProt Q38E63)
T3 sequence: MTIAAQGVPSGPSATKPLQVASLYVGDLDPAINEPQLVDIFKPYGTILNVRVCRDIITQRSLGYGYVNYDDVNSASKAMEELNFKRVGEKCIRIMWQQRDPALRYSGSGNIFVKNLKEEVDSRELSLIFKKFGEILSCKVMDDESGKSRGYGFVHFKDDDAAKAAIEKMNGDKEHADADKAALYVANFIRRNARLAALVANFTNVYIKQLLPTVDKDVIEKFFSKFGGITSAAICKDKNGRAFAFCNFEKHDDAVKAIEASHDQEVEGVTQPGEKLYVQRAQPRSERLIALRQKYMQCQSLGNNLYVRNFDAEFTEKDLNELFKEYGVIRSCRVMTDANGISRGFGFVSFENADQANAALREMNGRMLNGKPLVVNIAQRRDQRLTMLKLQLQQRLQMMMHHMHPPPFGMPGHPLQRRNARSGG

[4] = target: T4, tiar-1 (Caenorhabditis elegans) (UniProt Q95QV8)
T4 sequence: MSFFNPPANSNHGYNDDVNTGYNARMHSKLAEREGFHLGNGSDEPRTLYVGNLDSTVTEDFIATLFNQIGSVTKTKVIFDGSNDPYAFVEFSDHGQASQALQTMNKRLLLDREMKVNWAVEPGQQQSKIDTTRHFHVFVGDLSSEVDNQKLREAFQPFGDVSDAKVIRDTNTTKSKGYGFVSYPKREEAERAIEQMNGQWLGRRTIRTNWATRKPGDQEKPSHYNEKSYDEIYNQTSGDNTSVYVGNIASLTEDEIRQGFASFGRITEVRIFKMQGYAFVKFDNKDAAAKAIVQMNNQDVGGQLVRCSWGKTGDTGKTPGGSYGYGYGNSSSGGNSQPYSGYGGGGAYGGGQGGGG

[5] = target: T5, rbm47 (Xenopus tropicalis) (UniProt A0A8J0QCA8)
T5 sequence: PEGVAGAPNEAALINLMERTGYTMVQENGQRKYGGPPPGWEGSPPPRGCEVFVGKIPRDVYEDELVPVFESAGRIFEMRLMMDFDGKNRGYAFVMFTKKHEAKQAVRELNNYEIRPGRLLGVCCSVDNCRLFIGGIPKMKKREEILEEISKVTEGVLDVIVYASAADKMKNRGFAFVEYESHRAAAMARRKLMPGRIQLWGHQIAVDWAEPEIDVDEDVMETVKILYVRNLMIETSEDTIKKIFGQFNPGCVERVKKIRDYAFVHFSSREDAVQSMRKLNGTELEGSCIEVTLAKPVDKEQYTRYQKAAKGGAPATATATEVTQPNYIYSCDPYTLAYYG

[6] = target: T6, e_gw1.03.00.367.1 (Ostreococcus tauri) (UniProt Q01DB3)
T6 sequence: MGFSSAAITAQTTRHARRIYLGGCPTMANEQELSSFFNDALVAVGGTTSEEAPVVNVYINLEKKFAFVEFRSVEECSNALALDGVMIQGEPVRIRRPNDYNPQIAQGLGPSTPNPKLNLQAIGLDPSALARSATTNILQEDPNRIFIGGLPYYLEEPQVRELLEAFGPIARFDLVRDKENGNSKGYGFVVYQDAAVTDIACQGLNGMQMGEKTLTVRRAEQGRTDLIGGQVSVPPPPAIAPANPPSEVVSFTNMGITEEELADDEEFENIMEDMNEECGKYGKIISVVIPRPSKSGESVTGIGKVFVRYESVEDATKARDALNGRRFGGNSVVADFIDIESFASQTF

[7] = target: T7, LmjF.35.4130 (Leishmania major) (UniProt E9AFP0)
T7 sequence: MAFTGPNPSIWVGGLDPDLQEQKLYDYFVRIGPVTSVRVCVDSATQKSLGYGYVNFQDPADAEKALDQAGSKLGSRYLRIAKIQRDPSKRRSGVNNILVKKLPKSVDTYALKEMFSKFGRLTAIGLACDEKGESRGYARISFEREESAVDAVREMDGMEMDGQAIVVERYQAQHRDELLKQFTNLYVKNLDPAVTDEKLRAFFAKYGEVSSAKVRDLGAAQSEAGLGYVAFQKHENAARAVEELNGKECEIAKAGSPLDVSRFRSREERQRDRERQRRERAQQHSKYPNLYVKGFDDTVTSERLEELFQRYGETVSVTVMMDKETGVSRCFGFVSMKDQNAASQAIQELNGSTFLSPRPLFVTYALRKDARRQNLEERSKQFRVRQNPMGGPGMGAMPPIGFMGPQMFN

[8] = target: T8, estExt_fgeneshHS_pg.C_730016 (Naegleria gruberi) (UniProt D2W041)
T8 sequence: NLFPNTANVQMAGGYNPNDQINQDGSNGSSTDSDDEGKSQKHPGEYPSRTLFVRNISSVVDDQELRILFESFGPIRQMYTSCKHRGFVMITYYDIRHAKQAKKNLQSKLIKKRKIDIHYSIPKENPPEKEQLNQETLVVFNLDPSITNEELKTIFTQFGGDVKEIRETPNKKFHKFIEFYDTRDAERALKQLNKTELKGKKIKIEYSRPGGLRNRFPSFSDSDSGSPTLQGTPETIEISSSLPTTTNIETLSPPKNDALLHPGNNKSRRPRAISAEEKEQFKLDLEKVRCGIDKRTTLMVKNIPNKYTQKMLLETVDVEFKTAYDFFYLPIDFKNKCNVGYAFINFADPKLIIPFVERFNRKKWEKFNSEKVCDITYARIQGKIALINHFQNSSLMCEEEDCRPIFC

[9] = target: T9, LmjF.35.2550 (Leishmania major) (UniProt E9AF78)
T9 sequence: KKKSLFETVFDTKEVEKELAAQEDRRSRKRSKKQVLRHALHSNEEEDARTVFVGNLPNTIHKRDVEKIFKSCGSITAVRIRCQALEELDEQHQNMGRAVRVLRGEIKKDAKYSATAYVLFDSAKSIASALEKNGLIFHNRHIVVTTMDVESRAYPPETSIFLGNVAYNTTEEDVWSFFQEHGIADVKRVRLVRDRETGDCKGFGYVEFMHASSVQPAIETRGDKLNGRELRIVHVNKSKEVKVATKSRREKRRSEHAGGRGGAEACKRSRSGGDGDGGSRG

[10] = target: T10, RBM47 (Gallus gallus) (UniProt A0A8V0YMK0)
T10 sequence: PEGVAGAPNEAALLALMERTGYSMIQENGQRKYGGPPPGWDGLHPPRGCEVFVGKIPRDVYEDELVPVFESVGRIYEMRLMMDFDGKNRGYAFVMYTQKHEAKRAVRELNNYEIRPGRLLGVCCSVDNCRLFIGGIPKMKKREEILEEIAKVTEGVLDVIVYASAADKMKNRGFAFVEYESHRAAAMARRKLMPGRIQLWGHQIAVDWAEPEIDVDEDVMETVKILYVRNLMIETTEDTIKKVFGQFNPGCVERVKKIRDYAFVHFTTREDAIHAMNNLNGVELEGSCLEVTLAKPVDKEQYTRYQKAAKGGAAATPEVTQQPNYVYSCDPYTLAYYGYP

[11] = target: eIF-2alpha (Drosophila melanogaster) (UniProt P41374)
[12] = target: T11, ANKHD1 (Homo sapiens) (UniProt Q8IWZ3)
T11 sequence: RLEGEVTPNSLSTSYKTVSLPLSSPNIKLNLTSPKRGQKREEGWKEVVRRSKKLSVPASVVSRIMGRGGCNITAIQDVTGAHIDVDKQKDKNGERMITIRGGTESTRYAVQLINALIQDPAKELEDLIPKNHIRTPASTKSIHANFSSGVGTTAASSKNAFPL

[13] = target: T12, Rb97D (Drosophila melanogaster) (UniProt Q02926)
T12 sequence: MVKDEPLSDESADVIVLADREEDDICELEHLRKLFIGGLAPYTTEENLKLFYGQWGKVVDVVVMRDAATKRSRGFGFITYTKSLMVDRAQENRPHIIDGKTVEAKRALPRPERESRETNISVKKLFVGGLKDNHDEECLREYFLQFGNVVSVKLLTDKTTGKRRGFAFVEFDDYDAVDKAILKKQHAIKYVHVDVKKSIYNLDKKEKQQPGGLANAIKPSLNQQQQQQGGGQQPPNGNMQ

[14] = target: T13, NEMVEDRAFT_v1g104011 (Nematostella vectensis) (UniProt A7S488)
T13 sequence: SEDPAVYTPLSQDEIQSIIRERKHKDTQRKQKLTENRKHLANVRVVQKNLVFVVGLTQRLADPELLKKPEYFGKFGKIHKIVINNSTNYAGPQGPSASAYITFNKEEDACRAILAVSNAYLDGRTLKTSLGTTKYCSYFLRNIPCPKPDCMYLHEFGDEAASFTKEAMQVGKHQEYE

[15] = target: SRSF10 (Homo sapiens) (UniProt O75494)
[16] = target: aret (Drosophila melanogaster) (UniProt C8VV87)
[17] = target: T14, TVAG_002940 (Trichomonas vaginalis) (UniProt A2EZR7)
T14 sequence: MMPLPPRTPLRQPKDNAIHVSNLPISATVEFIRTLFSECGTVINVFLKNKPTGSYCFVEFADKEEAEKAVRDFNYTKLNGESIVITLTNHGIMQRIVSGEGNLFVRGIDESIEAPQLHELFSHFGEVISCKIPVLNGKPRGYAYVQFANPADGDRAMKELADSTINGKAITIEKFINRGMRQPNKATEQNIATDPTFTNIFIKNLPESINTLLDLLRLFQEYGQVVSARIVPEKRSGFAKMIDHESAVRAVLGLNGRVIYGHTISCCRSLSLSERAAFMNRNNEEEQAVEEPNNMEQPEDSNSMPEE

[18] = target: T15, syncrip (Xenopus tropicalis) (UniProt A0A8J0QJ86)
T15 sequence: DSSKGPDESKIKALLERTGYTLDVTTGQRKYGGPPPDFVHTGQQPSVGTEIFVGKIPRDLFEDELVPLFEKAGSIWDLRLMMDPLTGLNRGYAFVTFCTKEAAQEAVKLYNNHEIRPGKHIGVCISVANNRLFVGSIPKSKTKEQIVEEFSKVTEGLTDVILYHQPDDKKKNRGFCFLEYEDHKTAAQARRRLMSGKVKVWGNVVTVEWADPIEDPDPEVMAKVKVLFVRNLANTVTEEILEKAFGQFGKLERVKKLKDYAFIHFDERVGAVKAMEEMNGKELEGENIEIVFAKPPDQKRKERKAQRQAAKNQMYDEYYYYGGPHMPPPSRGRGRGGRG

[19] = target: PTBP1 (Homo sapiens) (UniProt P26599)
[20] = target: e_gw1.09.00.326.1 (Ostreococcus tauri) (UniProt A0A090N3Z5)
Chain of e_gw1.09.00.326.1 (Ostreococcus tauri) (A0A090N3Z5 entry or part of it): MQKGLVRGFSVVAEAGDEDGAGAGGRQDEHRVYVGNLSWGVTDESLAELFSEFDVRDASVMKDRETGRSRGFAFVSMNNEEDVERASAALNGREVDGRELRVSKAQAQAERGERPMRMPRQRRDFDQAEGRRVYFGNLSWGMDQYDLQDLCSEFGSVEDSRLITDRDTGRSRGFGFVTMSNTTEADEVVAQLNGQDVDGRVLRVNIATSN

Chain of PTBP1 (Homo sapiens) (P26599 other isoform, or with tags, fused parts or gaps): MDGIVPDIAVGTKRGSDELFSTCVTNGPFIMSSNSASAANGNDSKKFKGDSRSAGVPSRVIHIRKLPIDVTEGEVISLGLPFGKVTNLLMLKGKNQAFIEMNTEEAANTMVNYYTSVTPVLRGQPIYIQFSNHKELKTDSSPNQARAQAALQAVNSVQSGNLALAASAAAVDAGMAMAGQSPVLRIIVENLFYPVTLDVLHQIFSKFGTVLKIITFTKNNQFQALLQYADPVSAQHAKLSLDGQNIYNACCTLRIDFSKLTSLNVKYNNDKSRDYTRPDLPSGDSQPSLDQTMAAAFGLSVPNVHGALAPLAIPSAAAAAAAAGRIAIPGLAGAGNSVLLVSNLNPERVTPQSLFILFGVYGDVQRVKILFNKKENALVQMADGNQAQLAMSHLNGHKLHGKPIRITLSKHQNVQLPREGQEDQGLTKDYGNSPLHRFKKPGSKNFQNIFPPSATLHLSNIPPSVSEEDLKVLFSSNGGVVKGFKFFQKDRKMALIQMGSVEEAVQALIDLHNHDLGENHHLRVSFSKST
Chain of aret (Drosophila melanogaster) (C8VV87 entry or part of it): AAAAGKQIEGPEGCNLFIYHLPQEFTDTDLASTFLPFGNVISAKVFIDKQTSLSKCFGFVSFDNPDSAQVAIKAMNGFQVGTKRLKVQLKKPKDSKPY
Chain of SRSF10 (Homo sapiens) (O75494 1-92): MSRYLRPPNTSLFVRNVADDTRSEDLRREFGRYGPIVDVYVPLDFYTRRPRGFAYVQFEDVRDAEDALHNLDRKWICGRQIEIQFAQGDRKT
Chain of eIF-2alpha (Drosophila melanogaster) (P41374 whole entry): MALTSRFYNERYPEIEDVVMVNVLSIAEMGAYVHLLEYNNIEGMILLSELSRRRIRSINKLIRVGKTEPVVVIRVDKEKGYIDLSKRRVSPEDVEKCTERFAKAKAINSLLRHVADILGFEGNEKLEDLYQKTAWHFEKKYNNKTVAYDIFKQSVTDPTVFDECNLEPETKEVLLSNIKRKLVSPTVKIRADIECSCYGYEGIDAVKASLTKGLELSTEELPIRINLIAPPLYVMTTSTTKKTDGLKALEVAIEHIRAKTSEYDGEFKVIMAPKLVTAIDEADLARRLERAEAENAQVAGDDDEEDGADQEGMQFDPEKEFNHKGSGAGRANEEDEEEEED

Substance: UGUUUG [RNAcompete motif RNCMPT00258]
- binding signal (z-score (mean of top ten 7-mers)) [1]: 7.64

Substance: ACCAUG [RNAcompete motif RNCMPT00259]
- binding signal (z-score (mean of top ten 7-mers)) [2]: 19.9

Substance: AGAAANA [RNAcompete motif RNCMPT00253]
- binding signal (z-score (mean of top ten 7-mers)) [3]: 9.59

Substance: UUUUUU [RNAcompete motif RNCMPT00256]
- binding signal (z-score (mean of top ten 7-mers)) [4]: 11.2

Substance: GAUGAUU [RNAcompete motif RNCMPT00280]
- binding signal (z-score (mean of top ten 7-mers)) [5]: 7.8

Substance: UUUUUU [RNAcompete motif RNCMPT00262]
- binding signal (z-score (mean of top ten 7-mers)) [6]: 11.3

Substance: AAAACAAA [RNAcompete motif RNCMPT00255]
- binding signal (z-score (mean of top ten 7-mers)) [7]: 8.22

Substance: AAUUUUG [RNAcompete motif RNCMPT00261]
- binding signal (z-score (mean of top ten 7-mers)) [8]: 19.4

Substance: GAACG [RNAcompete motif RNCMPT00254]
- binding signal (z-score (mean of top ten 7-mers)) [9]: 15.2

Substance: GAUGAU [RNAcompete motif RNCMPT00279]
- binding signal (z-score (mean of top ten 7-mers)) [10]: 8.4

Substance: CUCUGU [RNAcompete motif RNCMPT00273]
- binding signal (z-score (mean of top ten 7-mers)) [11]: 6.48

Substance: AGACGU [RNAcompete motif RNCMPT00002]
- binding signal (z-score (mean of top ten 7-mers)) [12]: 22.8

Substance: UAGGUA [RNAcompete motif RNCMPT00272]
- binding signal (z-score (mean of top ten 7-mers)) [13]: 8.77

Substance: AGACACA [RNAcompete motif RNCMPT00278]
- binding signal (z-score (mean of top ten 7-mers)) [14]: 12.7

Substance: AGAGAAA [RNAcompete motif RNCMPT00090]
- binding signal (z-score (mean of top ten 7-mers)) [15]: 14.3

Substance: UNUUUGUGU [RNAcompete motif RNCMPT00270]
- binding signal (z-score (mean of top ten 7-mers)) [16]: 14.8

Substance: AGAAAA [RNAcompete motif RNCMPT00257]
- binding signal (z-score (mean of top ten 7-mers)) [17]: 12.5

Substance: AAAUU [RNAcompete motif RNCMPT00281]
- binding signal (z-score (mean of top ten 7-mers)) [18]: 7.01

Substance: UUUUCU [RNAcompete motif RNCMPT00268]
- binding signal (z-score (mean of top ten 7-mers)) [19]: 6.14

Substance: AGAACA [RNAcompete motif RNCMPT00263]
- binding signal (z-score (mean of top ten 7-mers)) [20]: 8.19
